According to patent publication US20210107981A1 (SUTRO BIOPHARMA, published 2021):
Read-outs that look alike come from different tables or passages of the source.

Experiments:
[1] = target: T1, Human PD-1 (ACROBiosystems, Inc., Catalog No. PD1-H5221) (human, UniProt Q15116 25-167); assay: SPR (Biacore), IgG as ligand, PD-1-his as sample
T1 construct: Bought recombinant protein; also called huPD1-His; PD-1-his; not shown: His tag of the bought protein (huPD1-His)

[2] = target: T2, human PD-1 expressed on the cell surface (CHO-PD1 cells) (human, UniProt Q15116 25-288); assay: FACS cell binding on CHO cells expressing human PD-1
T2 construct: Also used here as the target for native PD-1 on human PBMC / T cells in the functional (IFN-g) assays; also called CHO cell line overexpressing human PD-1; Cell-Surface Human PD-1 antigen
T2 sequence (Q15116 25-288 limits assumed): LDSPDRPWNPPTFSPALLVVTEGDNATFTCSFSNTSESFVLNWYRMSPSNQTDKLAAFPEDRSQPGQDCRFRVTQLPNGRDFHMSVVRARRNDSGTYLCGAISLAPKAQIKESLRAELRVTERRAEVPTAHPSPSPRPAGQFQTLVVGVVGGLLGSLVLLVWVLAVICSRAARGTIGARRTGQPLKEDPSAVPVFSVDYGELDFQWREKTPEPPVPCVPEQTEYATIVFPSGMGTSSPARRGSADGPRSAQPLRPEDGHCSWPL
Method: (§1) A mix of parental CHO cells and CHO-PD1 cells was prepared as follows: Parental CHO cells were washed 2× in PBS then incubated in PBS containing 1 μM CellTrace™ Oregon Green488® (Life Technologies) at 37° C. for 30 minutes. Cells were then washed 2× with RPMI w/10% fetal calf serum (FCS), washed 2× with FACS buffer (PBS w/2% FCS), suspended thoroughly in ice-cold FACS buffer at a final concentration of 2×10⁶ cells/mL and kept on ice. CHO-PD1 cells were similarly washed with FACS buffer and kept on ice at 2×10⁶ cells/mL. Parental CHO cells and CHO-PD1 cells were then mixed to obtain a 1:1 cell suspension and seeded at 100 μL per well on 96 well polypropylene plates. Plates were spun at 1500 rpm for 5 minutes and cell pellets were suspended in 50 μL FACS buffer containing 6-12 point dilutions of anti-PD-1 variants starting from concentrations of −100-200 nM antibody, dispensed using BioMek FX (Beckman Coulter). Cells were then incubated on ice for 1 hr, washed with FACS buffer and incubated for 1 hr on ice with 50 μL FACS buffer containing 2.5 μg/ml R-phycoerythrin-conjugated goat anti-Human IgG (Jackson ImmunoResearch) or AF647-conjugated goat anti-mouse IgG (Life Technologies) dispensed using BioMek FX (Beckman Coulter). Cells were then washed 2× with FACS buffer and fixed for 10 minutes in 200 μL PBS with 2% paraformaldehyde (PFA) prior to fluorescence detection. Samples were acquired using a Becton Dickinson LSRII FACS. Mean Fluorescence Intensity of PD-1 antibody binding was analyzed using FlowJo® software (Tree Star, Inc.).
The affinity of the IgGs for cell-surface expressed human PD-1 were measured according to Example 6, above.

[3] = target: T3, cynomolgus PD-1 expressed on CHO cells (cynomolgus, UniProt B0LAJ3 25-288); assay: FACS cell binding on CHO cells expressing cynomolgus PD-1
T3 construct: also called Cell-Surface Cynomolgus PD-1 antigen
T3 sequence (B0LAJ3 entry or part of it limits assumed, form in doubt): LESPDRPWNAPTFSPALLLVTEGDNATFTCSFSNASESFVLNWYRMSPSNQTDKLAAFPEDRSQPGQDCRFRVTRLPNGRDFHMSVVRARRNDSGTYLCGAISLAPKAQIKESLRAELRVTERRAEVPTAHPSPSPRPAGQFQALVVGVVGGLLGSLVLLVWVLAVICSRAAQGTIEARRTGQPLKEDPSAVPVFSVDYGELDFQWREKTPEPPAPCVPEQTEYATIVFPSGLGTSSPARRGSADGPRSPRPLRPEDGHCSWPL
Method: as §1
The affinity of the IgGs for cell-surface expressed cynomolgus PD-1 were measured according to Example 6, above.

[4] = target: T1, Human PD-1 (ACROBiosystems, Inc., …); assay: SPR (Biacore), IgG as ligand, PD-1-his as sample; remark: listed apart in the source

T1 sequence (Q15116 25-167 limits assumed): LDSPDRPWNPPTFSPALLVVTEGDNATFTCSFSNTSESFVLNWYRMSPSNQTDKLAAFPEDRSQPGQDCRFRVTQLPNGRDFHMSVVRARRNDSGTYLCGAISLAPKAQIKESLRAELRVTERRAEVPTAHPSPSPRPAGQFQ

Binder	Kd [1] [nM]	Kd [2] [nM]	Kd [3] [nM]	Kd [4] [nM]	koff [4] [s⁻¹]	kon [4] [M⁻¹ s⁻¹]
h1E9-HC3 × h1E9-LC3 IgG (antibody, Humanized IgG; heavy chain with C-terminal FlagHis tag) heavy: not shown light: MEIVLTQSPGTLSLSPGERATLSCRASESVDNSGISFMSWYQQKPGQAPRLLIYTASNQGSGIPDRFSGSGSGTDFTLTISRLEPEDFAVYYCQQSKEVPWTFGQGTKVEIKRTVAAPSVFIFPPSDEQLKSGTASVVCLLNNFYPREAKVQWKVDNALQSGNSQESVTEQDSKDSTYSLSSTLTLSKADYEKHKVYACEVTHQGLSSPVTKSFNRGEC	16.9	12	8			
h1E9-5-IgG-HC-FLAG-HIS × h1E9-LC3 IgG (antibody, also called h1E9-5 HC × h1E9-LC3) heavy: not shown light: MEIVLTQSPGTLSLSPGERATLSCRASESVDNSGISFMSWYQQKPGQAPRLLIYTASNQGSGIPDRFSGSGSGTDFTLTISRLEPEDFAVYYCQQSKEVPWTFGQGTKVEIKRTVAAPSVFIFPPSDEQLKSGTASVVCLLNNFYPREAKVQWKVDNALQSGNSQESVTEQDSKDSTYSLSSTLTLSKADYEKHKVYACEVTHQGLSSPVTKSFNRGEC	16.3	11	9			
h1E9-HC1 × h1E9-LC3 IgG (antibody, Humanized IgG; heavy chain with C-terminal FlagHis tag) heavy: not shown light: MEIVLTQSPGTLSLSPGERATLSCRASESVDNSGISFMSWYQQKPGQAPRLLIYTASNQGSGIPDRFSGSGSGTDFTLTISRLEPEDFAVYYCQQSKEVPWTFGQGTKVEIKRTVAAPSVFIFPPSDEQLKSGTASVVCLLNNFYPREAKVQWKVDNALQSGNSQESVTEQDSKDSTYSLSSTLTLSKADYEKHKVYACEVTHQGLSSPVTKSFNRGEC	6.38	12	15			
h1E9-HC2 × h1E9-LC3 IgG (antibody, Humanized IgG; heavy chain with C-terminal FlagHis tag) heavy: not shown light: MEIVLTQSPGTLSLSPGERATLSCRASESVDNSGISFMSWYQQKPGQAPRLLIYTASNQGSGIPDRFSGSGSGTDFTLTISRLEPEDFAVYYCQQSKEVPWTFGQGTKVEIKRTVAAPSVFIFPPSDEQLKSGTASVVCLLNNFYPREAKVQWKVDNALQSGNSQESVTEQDSKDSTYSLSSTLTLSKADYEKHKVYACEVTHQGLSSPVTKSFNRGEC	10.9	9	9			
h1E9-5 IgG (antibody, Human IgG1; heavy chain with C-terminal FlagHis tag; made by cell-free expression; also called h1E9-5 human IgG1) heavy: not shown light: MEIVLTQSPATLSLSPGERATLSCRASESVDNSGISFMSWYQQKPGQAPRLLIYTASNQGSGIPARFSGSGSGTDFTLTISSLEPEDFAVYYCQQSKEVPWTFGQGTKVEIKRTVAAPSVFIFPPSDEQLKSGTASVVCLLNNFYPREAKVQWKVDNALQSGNSQESVTEQDSKDSTYSLSSTLTLSKADYEKHKVYACEVTHQGLSSPVTKSFNRGEC				19.4	0.000471	24300
h1E9-4 IgG (antibody, Human IgG1; heavy chain with C-terminal FlagHis tag; made by cell-free expression; also called h1E9-4 human IgG1) heavy: not shown light: MDIQLTQSPSFLSASVGDRVTITCRASESVDNSGISFMSWYQQKPGKAPKLLIYTASNQGSGVPSRFSGSGSGTEFTLTISSLQPEDFATYYCQQSKEVPWTFGQGTKVEIKRTVAAPSVFIFPPSDEQLKSGTASVVCLLNNFYPREAKVQWKVDNALQSGNSQESVTEQDSKDSTYSLSSTLTLSKADYEKHKVYACEVTHQGLSSPVTKSFNRGEC				12.4	0.000442	35600
h1E9-HC2 × h1E9-LC1 IgG (antibody, Humanized IgG; heavy chain with C-terminal FlagHis tag) heavy: not shown light: MDIQLTQSPSSLSASVGDRVTITCRASESVDNSGISFMSWYQQKPGKAPKLLIYTASNQGSGVPSRFSGSGSGTDFTFTISSLQPEDIATYYCQQSKEVPWTFGQGTKVEIKRTVAAPSVFIFPPSDEQLKSGTASVVCLLNNFYPREAKVQWKVDNALQSGNSQESVTEQDSKDSTYSLSSTLTLSKADYEKHKVYACEVTHQGLSSPVTKSFNRGEC	3.11	7	6			
h1E9-HC3 × h1E9-LC2 IgG (antibody, Humanized IgG; heavy chain with C-terminal FlagHis tag) heavy: not shown light: MDIVLTQSPLSLPVTPGEPASISCRASESVDNSGISFMSWYLQKPGQSPQLLIYTASNQGSGVPDRFSGSGSGTDFTLKISRVEAEDVGVYYCQQSKEVPWTFGQGTKVEIKRTVAAPSVFIFPPSDEQLKSGTASVVCLLNNFYPREAKVQWKVDNALQSGNSQESVTEQDSKDSTYSLSSTLTLSKADYEKHKVYACEVTHQGLSSPVTKSFNRGEC	3.19	19	11			
h1E9-5-IgG-HC-FLAG-HIS × h1E9-LC2 IgG (antibody, also called h1E9-5 HC × h1E9-LC2) heavy: not shown light: MDIVLTQSPLSLPVTPGEPASISCRASESVDNSGISFMSWYLQKPGQSPQLLIYTASNQGSGVPDRFSGSGSGTDFTLKISRVEAEDVGVYYCQQSKEVPWTFGQGTKVEIKRTVAAPSVFIFPPSDEQLKSGTASVVCLLNNFYPREAKVQWKVDNALQSGNSQESVTEQDSKDSTYSLSSTLTLSKADYEKHKVYACEVTHQGLSSPVTKSFNRGEC	16.2	16	11			
h1E9-HC1 × h1E9-LC2 IgG (antibody, Humanized IgG; heavy chain with C-terminal FlagHis tag) heavy: not shown light: MDIVLTQSPLSLPVTPGEPASISCRASESVDNSGISFMSWYLQKPGQSPQLLIYTASNQGSGVPDRFSGSGSGTDFTLKISRVEAEDVGVYYCQQSKEVPWTFGQGTKVEIKRTVAAPSVFIFPPSDEQLKSGTASVVCLLNNFYPREAKVQWKVDNALQSGNSQESVTEQDSKDSTYSLSSTLTLSKADYEKHKVYACEVTHQGLSSPVTKSFNRGEC	19	12	19			
h1E9-HC2 × h1E9-LC2 IgG (antibody, Humanized IgG; heavy chain with C-terminal FlagHis tag) heavy: not shown light: MDIVLTQSPLSLPVTPGEPASISCRASESVDNSGISFMSWYLQKPGQSPQLLIYTASNQGSGVPDRFSGSGSGTDFTLKISRVEAEDVGVYYCQQSKEVPWTFGQGTKVEIKRTVAAPSVFIFPPSDEQLKSGTASVVCLLNNFYPREAKVQWKVDNALQSGNSQESVTEQDSKDSTYSLSSTLTLSKADYEKHKVYACEVTHQGLSSPVTKSFNRGEC	12.3	11	9			
h1E9-HC3 × h1E9-LC4 IgG (antibody, Humanized IgG; heavy chain with C-terminal FlagHis tag) heavy: not shown light: MDIVLTQSPDSLAVSLGERATINCRASESVDNSGISFMSWYQQKPGQPPKLLIYTASNQGSGVPDRFSGSGSGTDFTLTISSLQAEDVAVYYCQQSKEVPWTFGQGTKVEIKRTVAAPSVFIFPPSDEQLKSGTASVVCLLNNFYPREAKVQWKVDNALQSGNSQESVTEQDSKDSTYSLSSTLTLSKADYEKHKVYACEVTHQGLSSPVTKSFNRGEC	9.4	9	5			
h1E9-5-IgG-HC-FLAG-HIS × h1E9-LC4 IgG (antibody, also called h1E9-5 HC × h1E9-LC4) heavy: not shown light: MDIVLTQSPDSLAVSLGERATINCRASESVDNSGISFMSWYQQKPGQPPKLLIYTASNQGSGVPDRFSGSGSGTDFTLTISSLQAEDVAVYYCQQSKEVPWTFGQGTKVEIKRTVAAPSVFIFPPSDEQLKSGTASVVCLLNNFYPREAKVQWKVDNALQSGNSQESVTEQDSKDSTYSLSSTLTLSKADYEKHKVYACEVTHQGLSSPVTKSFNRGEC	7.31	14	12			
h1E9-HC1 × h1E9-LC4 IgG (antibody, Humanized IgG; heavy chain with C-terminal FlagHis tag) heavy: not shown light: MDIVLTQSPDSLAVSLGERATINCRASESVDNSGISFMSWYQQKPGQPPKLLIYTASNQGSGVPDRFSGSGSGTDFTLTISSLQAEDVAVYYCQQSKEVPWTFGQGTKVEIKRTVAAPSVFIFPPSDEQLKSGTASVVCLLNNFYPREAKVQWKVDNALQSGNSQESVTEQDSKDSTYSLSSTLTLSKADYEKHKVYACEVTHQGLSSPVTKSFNRGEC	6.33	8	11			
h1E9-HC2 × h1E9-LC4 IgG (antibody, Humanized IgG; heavy chain with C-terminal FlagHis tag) heavy: not shown light: MDIVLTQSPDSLAVSLGERATINCRASESVDNSGISFMSWYQQKPGQPPKLLIYTASNQGSGVPDRFSGSGSGTDFTLTISSLQAEDVAVYYCQQSKEVPWTFGQGTKVEIKRTVAAPSVFIFPPSDEQLKSGTASVVCLLNNFYPREAKVQWKVDNALQSGNSQESVTEQDSKDSTYSLSSTLTLSKADYEKHKVYACEVTHQGLSSPVTKSFNRGEC	4.96	4	6			
